Measured values reported in PMC4558601, “Architecture of the Synaptophysin/Synaptobrevin Complex: Structural Evidence for an Entropic Clustering Function at the Synapse” (Scientific Reports, 2015).

Target: the molecule itself
Test: SEC + other: SDS-PAGE densitometry and western blot of the co-purified native complex; native SYP/VAMP2 complex purified from calf brain synaptic vesicles in high cholesterol; Sephacryl S-300 in 20 mM NaH2PO4 pH 6.8, 0.2% Brij-35, 0.1% cholesterol, 40 mM sucrose; fractions analysed by SDS-PAGE, silver stain, western blot, densitometry

B1: synaptophysin (SYP), native, from calf brain (natural protein, bovine (endogenous in calf brain), UniProt P20488 1-313, looked up)
chain: MLLLADMDVVNQLVAGGQFRVVKEPLGFVKVLQWVFAIFAFATCGSYSGELQLSVDCANKTKSDLNIEVEFEYPFRLHEVYFEAPTCQGDPKKIFLVGNYSSSAEFFVTVAVFAFLYSMGALATYIFLQNKYRENNKGPMLDFLATAVFAFMWLVSSSAWAKGLSDVKMATDPENIIKGMHVCHQPGNTCKELRDPVTSGLNTSVVFGFLNLVLWVGNLWFVFKETGWAAPFLRAPPGAPEKQPAPGDAYGQAGYGQGPGGYGPQDSYGPQGGYQPDYGQPASSGGGGYGPQGDYGQQGYGPQGAPTSFSNQM
notes: synaptophysin (SYP), bovine, native protein isolated from calf brain synaptic vesicles together with VAMP2; 4-pass integral membrane protein; Endogenous protein, co-purified with VAMP2 as a native complex; source: purified from calf brain synaptic vesicles (Triton X-100 extract with cholesterol; hydroxyapatite/celite flow through, anion exchange, size exclusion)
  stoichiometry N: 6
